According to publication PMC5442325:

Tests used:
[1] = target: Deinococcus radiodurans RecA protein (wild type) (Deinococcus radiodurans) (UniProt P42443)
[2] = target: Deinococcus radiodurans RecA K83R mutant protein (Deinococcus radiodurans) (UniProt P42443)

B1: Deinococcus radiodurans RecN protein (wild type) (natural protein)
chain: MTRKARTPKAAPVPEAVAVVEPPPPDAAPTGPRLSRLEIRNLATITQLELELGGGFCAFTGETGAGKSIIVDALGLLLGGRANHDLIRSGEKELLVTGFWGDGDESEADSASRRLSSAGRGAARLSGEVVSVRELQEWAQGRLTIHWQHSAVSLLSPANQRGLLDRRVTKEAQAYAAAHAAWREAVSRLERLQASQRERARQIDLLAFQVQEISEVSPDPGEEEGLNTELSRLSNLHTIAQAAAGGVELLSDGDLNAAGLIGEAVRALNAGAKYDETVMQLQNELRAALESVQAIAGELRDVAEGSAADPEALDRVEARLSALSKLKNKYGPTLEDVVEFGAQAAEELAGLEEDERDAGSLQADVDALHAELLKVGQALDAAREREAEPLVDSLLAVIRELGMPHARMEFALSALAEPAAYGLSDVLLRFSANPGEELGPLSDVASGGELSRVMLAVSTVLGADTPSVVFDEVDAGIGGAAAIAVAEQLSRLADTRQVLVVTHLAQIAARAHHHYKVEKQVEDGRTVSHVRLLTGDERLEEIARMLSGNTSEAALEHARELLAG
- nicked circular duplex product of RecA-mediated DNA three-strand exchange under dilute conditions (0.4 μM RecA, 500 nM RecN, 45 min) [1]: > 3 fold
- steady-state RecN ATP hydrolysis rate, order of addition RecA K83R+DNA then RecN (reaction 5; 2 μM RecN, 2 μM RecA K83R, 50 μM duplex DNA, buffer N) [2]: 56.3 µM/min
- steady-state RecN ATP hydrolysis rate, order of addition RecN+DNA then RecA K83R (reaction 3; 2 μM RecN, 2 μM RecA K83R, 50 μM duplex DNA, buffer N) [2]: 53.4 µM/min
- steady-state RecN ATP hydrolysis rate, order of addition RecN+RecA K83R then DNA (reaction 4; 2 μM RecN, 2 μM RecA K83R, 50 μM duplex DNA, buffer N) [2]: 47.5 µM/min
